For this data set the following is noted: Carica papaya, Thermal, DSC, glycine 0.05M, reversible: No, whole UniProt chain shown.

For orientation: Tm means the temperature at which the thermal transition is half complete.

B1: Papain wild type, P00784 (protein)
chain: MAMIPSISKLLFVAICLFVYMGLSFGDFSIVGYSQNDLTSTERLIQLFESWMLKHNKIYKNIDEKIYRFEIFKDNLKYIDETNKKNNSYWLGLNVFADMSNDEFKEKYTGSIAGNYTTTELSYEEVLNDGDVNIPEYVDWRQKGAVTPVKNQGSCGSCWAFSAVVTIEGIIKIRTGNLNEYSEQELLDCDRRSYGCNGGYPWSALQLVAQYGIHYRNTYPYEGVQRYCRSREKGPYAAKTDGVRQVQPYNEGALLYSIANQPVSVVLEAAGKDFQLYRGGIFVGPCGNKVDHAVAAVGYGPNYILIKNSWGTGWGENGYIRIKRGTGNSYGVCGLYTSSFYPVKN
In the case of B1, the Tm came out at 60.3 °C (pH 2.9), 78.5 °C (pH 3.8) and 81.8 °C (pH 4.1). Moreover, the “unfolding enthalpy (calorimetric)” value runs as follows: (pH 2.9) 133 kcal/mol; (pH 3.8) 198 kcal/mol; (pH 4.1) 211 kcal/mol.

These data come from FireProtDB (doi:10.1016/0167-4838(93)90045-s).
